What was measured:
Fer (mouse) = test: phosphorylation enrichment, bacterial display (enrichment ratio); higher = better substrate or ligand; peptides without Tyr show the background
MERTK = MERTK (UniProt Q12866); test: as above
c-Abl (mouse) = test: as above
FGFR3 = FGFR3 (UniProt P22607); test: as above
AncSZ = test: as above
Jak2 = Jak2 (UniProt O60674); test: as above
FGFR1 = FGFR1 (UniProt P11362); test: as above
Fyn = Fyn (UniProt P06241); test: as above
Fes = Fes (UniProt P07332); test: as above
Fes, sequence (P07332 whole entry, looked up): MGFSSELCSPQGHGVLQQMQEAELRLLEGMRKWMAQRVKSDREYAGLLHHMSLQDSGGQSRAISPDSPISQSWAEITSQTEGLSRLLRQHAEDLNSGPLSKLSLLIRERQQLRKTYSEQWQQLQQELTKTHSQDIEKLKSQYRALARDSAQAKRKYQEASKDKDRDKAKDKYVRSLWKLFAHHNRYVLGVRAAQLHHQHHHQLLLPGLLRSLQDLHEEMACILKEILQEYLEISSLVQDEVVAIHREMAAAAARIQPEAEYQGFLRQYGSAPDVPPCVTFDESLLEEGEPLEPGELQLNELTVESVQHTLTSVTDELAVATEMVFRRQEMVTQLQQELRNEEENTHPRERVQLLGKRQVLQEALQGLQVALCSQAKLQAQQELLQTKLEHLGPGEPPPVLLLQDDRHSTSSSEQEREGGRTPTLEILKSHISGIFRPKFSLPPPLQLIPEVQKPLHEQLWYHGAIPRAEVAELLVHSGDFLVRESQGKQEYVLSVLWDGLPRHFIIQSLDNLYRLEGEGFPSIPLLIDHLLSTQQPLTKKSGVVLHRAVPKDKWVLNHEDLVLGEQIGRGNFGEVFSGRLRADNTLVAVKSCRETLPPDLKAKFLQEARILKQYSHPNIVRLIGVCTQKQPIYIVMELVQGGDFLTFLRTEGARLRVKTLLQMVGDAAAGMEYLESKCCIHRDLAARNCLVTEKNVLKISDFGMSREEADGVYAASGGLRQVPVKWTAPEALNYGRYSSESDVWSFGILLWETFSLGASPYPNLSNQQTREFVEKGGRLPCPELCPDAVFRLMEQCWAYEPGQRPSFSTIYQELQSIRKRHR

EPHB2 = EPHB2 (UniProt P29323); test: as above
EPHB2, sequence (P29323 whole entry, looked up): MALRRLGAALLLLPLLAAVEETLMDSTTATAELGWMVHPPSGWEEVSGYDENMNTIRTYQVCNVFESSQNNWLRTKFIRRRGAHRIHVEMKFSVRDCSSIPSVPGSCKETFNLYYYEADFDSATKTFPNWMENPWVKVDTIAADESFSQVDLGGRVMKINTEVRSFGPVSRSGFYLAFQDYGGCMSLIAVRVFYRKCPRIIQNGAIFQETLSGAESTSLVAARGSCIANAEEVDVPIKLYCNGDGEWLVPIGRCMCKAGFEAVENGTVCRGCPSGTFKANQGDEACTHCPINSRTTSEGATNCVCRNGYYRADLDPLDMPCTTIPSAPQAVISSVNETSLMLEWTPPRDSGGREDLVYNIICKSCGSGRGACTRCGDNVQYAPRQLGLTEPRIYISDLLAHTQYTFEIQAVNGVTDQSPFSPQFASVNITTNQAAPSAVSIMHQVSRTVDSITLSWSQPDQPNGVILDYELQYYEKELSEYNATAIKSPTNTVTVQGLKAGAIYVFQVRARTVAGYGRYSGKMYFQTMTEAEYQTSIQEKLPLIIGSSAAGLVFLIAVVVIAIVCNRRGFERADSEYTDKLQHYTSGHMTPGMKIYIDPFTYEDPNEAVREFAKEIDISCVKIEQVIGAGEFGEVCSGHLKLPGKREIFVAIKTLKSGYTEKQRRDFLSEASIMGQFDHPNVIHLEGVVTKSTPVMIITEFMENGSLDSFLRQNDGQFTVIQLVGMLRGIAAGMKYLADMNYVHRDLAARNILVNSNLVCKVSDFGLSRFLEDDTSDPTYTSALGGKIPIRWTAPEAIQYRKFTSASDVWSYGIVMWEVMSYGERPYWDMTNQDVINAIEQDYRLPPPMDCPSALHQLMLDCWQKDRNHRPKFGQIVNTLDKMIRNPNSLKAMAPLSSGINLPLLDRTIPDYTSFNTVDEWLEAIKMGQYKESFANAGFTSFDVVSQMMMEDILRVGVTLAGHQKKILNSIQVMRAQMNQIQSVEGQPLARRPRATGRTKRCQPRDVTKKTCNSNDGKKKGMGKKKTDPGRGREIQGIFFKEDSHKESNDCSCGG

c-Src = test: as above
Hck = Hck (UniProt P08631); test: as above
Hck, sequence (P08631 whole entry, looked up): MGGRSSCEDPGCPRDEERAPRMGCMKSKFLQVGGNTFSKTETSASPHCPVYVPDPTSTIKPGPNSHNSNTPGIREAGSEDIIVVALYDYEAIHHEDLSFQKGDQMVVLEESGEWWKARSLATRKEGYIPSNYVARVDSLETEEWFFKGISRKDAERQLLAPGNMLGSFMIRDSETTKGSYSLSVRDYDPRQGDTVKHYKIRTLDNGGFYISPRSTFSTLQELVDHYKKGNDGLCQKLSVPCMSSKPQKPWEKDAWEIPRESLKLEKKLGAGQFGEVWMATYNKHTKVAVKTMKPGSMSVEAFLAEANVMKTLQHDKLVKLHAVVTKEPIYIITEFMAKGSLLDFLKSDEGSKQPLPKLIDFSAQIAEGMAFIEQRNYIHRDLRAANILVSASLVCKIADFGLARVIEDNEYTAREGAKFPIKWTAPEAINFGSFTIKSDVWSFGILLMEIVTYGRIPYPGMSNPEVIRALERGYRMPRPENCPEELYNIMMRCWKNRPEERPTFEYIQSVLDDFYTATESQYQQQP

EPHB1 = EPHB1 (UniProt P54762); test: as above
c-Src SH2 = test: SH2 binding enrichment of the phosphorylated peptide, bacterial display (enrichment ratio); higher = better substrate or ligand; peptides without Tyr show the background
SHP2-C SH2 = test: as above
Grb2 SH2 = Grb2 SH2 (UniProt P62993); test: as above
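Throughout, for SH2 binding enrichment of the phosphorylated peptide, bacterial display: peptide library displayed on the E. coli surface as eCPX fusions, selected cells deep-sequenced, score is each peptide's frequency after selection divided by its frequency in the input.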
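Throughout, for phosphorylation enrichment, bacterial display: 11-residue human phosphosite peptides and single-mutation variants displayed on the E. coli surface, counted by deep sequencing, each peptide's frequency after selection divided by its frequency in the unselected input library; frequency after pTyr selection over input frequency; kinase dosed for 20-30% of maximal phosphorylation in three min.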

MERTK, sequence (Q12866 whole entry, looked up): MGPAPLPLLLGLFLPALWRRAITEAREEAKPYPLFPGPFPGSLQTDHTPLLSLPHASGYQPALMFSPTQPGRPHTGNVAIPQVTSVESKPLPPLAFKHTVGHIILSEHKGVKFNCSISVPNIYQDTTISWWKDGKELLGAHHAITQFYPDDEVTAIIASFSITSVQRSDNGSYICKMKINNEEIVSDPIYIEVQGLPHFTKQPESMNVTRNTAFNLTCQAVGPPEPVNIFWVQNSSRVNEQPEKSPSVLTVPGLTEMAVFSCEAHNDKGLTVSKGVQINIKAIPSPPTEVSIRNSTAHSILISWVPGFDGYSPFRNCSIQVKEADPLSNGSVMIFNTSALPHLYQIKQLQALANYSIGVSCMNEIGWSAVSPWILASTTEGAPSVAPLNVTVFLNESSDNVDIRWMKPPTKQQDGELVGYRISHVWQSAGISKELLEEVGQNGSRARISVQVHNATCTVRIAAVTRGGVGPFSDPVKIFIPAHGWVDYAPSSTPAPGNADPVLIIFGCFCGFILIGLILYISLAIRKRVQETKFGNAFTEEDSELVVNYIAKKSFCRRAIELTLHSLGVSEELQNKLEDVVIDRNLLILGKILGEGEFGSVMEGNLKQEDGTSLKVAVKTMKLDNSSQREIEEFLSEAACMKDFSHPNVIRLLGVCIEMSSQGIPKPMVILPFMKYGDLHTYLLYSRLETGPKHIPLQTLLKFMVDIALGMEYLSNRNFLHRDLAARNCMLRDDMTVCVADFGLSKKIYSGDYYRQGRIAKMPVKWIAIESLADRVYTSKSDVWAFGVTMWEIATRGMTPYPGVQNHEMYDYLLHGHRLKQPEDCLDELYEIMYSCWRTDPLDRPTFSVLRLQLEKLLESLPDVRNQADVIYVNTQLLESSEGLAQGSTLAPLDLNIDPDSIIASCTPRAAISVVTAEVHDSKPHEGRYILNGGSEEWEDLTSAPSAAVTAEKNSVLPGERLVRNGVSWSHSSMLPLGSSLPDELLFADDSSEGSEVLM
Jak2, sequence (O60674 whole entry, looked up): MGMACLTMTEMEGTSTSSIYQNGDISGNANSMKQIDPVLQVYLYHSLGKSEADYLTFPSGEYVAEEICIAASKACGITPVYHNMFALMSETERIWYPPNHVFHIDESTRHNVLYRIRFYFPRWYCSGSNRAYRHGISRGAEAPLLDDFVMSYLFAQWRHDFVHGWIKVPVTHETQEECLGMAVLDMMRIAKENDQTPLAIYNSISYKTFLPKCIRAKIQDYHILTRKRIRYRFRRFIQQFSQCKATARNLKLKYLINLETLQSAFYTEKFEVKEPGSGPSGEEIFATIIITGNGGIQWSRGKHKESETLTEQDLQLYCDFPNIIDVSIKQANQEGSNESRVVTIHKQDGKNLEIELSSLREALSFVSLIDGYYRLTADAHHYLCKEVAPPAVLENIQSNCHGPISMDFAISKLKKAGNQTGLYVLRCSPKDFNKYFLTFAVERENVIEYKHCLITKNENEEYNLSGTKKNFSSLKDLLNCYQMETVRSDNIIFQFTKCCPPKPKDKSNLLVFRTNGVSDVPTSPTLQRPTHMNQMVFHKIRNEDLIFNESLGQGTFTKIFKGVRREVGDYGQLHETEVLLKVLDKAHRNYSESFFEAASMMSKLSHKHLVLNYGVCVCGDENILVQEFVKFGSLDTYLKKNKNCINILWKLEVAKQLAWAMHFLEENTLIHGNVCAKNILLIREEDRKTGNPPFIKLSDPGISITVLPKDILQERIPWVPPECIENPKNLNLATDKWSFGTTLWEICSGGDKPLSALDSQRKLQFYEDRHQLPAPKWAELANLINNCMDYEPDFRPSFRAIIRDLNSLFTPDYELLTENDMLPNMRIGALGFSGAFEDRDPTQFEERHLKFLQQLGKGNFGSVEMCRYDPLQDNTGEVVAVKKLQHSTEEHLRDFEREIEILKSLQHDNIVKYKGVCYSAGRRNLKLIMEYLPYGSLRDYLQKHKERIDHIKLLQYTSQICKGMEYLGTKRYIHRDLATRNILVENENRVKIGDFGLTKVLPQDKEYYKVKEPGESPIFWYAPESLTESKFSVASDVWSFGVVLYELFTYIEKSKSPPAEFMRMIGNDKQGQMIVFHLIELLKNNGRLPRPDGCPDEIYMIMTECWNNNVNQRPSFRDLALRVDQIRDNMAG
Fyn, sequence (P06241 whole entry, looked up): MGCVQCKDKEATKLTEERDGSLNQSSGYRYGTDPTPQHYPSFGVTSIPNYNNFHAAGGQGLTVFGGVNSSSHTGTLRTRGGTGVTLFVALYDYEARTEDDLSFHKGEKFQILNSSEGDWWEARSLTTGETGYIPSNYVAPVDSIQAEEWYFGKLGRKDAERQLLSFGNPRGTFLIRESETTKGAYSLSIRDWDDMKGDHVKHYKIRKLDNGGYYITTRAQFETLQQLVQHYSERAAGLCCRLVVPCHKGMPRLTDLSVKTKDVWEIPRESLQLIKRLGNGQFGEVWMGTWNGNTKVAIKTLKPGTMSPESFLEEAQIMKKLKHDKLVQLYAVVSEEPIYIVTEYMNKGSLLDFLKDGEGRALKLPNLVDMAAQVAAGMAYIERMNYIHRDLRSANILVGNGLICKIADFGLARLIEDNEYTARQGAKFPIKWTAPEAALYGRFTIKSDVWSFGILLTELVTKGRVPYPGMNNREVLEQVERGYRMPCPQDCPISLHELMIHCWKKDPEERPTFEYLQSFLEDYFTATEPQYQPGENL

| SH2 binding enrichment (c-Src SH2) | SH2 binding enrichment (SHP2-C SH2) | SH2 binding enrichment (Grb2 SH2) | Sequence | phosphorylation enrichment (Fer (mouse)) | phosphorylation enrichment (MERTK) | phosphorylation enrichment (c-Abl (mouse)) | phosphorylation enrichment (FGFR3) | phosphorylation enrichment (AncSZ) | phosphorylation enrichment (Jak2) | phosphorylation enrichment (FGFR1) | phosphorylation enrichment (Fyn) | phosphorylation enrichment (Fes) | phosphorylation enrichment (EPHB2) | phosphorylation enrichment (c-Src) | phosphorylation enrichment (Hck) | phosphorylation enrichment (EPHB1) |
| --- | --- | --- | --- | --- | --- | --- | --- | --- | --- | --- | --- | --- | --- | --- | --- | --- |
| 1.67 | 2.26 | 1.65 | CTTIHYHFMCN [TP53_Y234_N235H_YF] | 0.632 | 0.441 | 0.785 | 0.729 | 1.1 | 0.902 | 0.599 | 0.542 | 1.06 | 0.637 | 0.488 | 0.48 | 0.549 |
| 0.643 | 0.502 | 0.806 | SAVVPYEPPEV [TP53_Y220_V216A] | 0.479 | 0.409 | 0.649 | 0.761 | 1.23 | 0.998 | 0.586 | 0.556 | 1.21 | 0.608 | 0.484 | 0.513 | 0.643 |
| 0.528 | 0.773 | 0.98 | LNERHYGGLTD [PGAM2_Y92_G97D] | 0.7 | 0.629 | 0.605 | 1.12 | 1.18 | 0.457 | 0.977 | 0.975 | 0.663 | 0.83 | 0.515 | 1.08 | 1.1 |
| 0.561 | 0.69 | 0.816 | QDEPTYARSSK [PEAK1_Y616_H611Q] | 0.466 | 0.513 | 0.738 | 0.508 | 0.787 | 0.685 | 0.603 | 0.554 | 0.869 | 0.498 | 0.661 | 0.838 | 0.389 |
| 0.519 | 0.478 | 0.821 | RRFLFYFSFLL [PTEN_Y177_V175L_YF] | 0.398 | 0.53 | 0.613 | 0.508 | 0.691 | 0.727 | 0.472 | 0.567 | 0.794 | 0.608 | 0.683 | 0.541 | 0.493 |
| 0.74 | 2.19 | 1.5 | LNPLFYSLRNK [OR5R1_Y290_I289F] | 0.75 | 0.395 | 0.363 | 0.737 | 0.552 | 0.468 | 0.481 | 0.511 | 0.773 | 0.537 | 0.348 | 0.475 | 0.396 |
| 0.6 | 0.757 | 0.968 | CNNFICGGCRG [SPINT2_Y163_Y163C] | 0.443 | 0.488 | 0.697 | 0.644 | 0.963 | 0.87 | 0.5 | 0.519 | 0.902 | 0.515 | 0.415 | 0.504 | 0.466 |
| 0.586 | 0.716 | 1.18 | HGEAVYSRDCV [XPC_Y676_R671H] | 0.664 | 0.89 | 0.66 | 0.687 | 0.697 | 0.786 | 0.621 | 3.49 | 0.819 | 0.51 | 3.78 | 2.75 | 0.473 |
| 0.401 | 0.598 | 0.531 | PRNLIYFGEHP [TRPV6_Y201_C197R] | 0.619 | 0.448 | 0.92 | 0.912 | 1.23 | 1.57 | 0.423 | 0.738 | 1.51 | 0.925 | 1.08 | 0.932 | 0.631 |
| 1.54 | 1.34 | 1.46 | FSCLPCGRLAY [SLC52A2_Y305_Y305C] | 0.351 | 0.688 | 0.584 | 0.54 | 0.832 | 0.724 | 0.481 | 0.425 | 0.772 | 0.485 | 0.45 | 0.431 | 0.431 |
| 0.469 | 0.545 | 0.714 | APGDAYGDAGF [SYP_Y250_YF] | 0.491 | 0.426 | 0.565 | 0.521 | 0.938 | 0.8 | 0.484 | 0.494 | 0.905 | 0.548 | 0.464 | 0.566 | 0.514 |
| 0.74 | 0.569 | 0.856 | AFEQQYSPIPK [NOX1_Y373_R378K] | 0.435 | 0.874 | 0.612 | 0.575 | 0.772 | 0.534 | 0.744 | 0.514 | 0.741 | 0.411 | 0.802 | 3.14 | 0.766 |
| 0.455 | 0.878 | 1.02 | QMWLKYSQSDL [SMC1A_Y714_R711W] | 0.512 | 0.505 | 1.11 | 1.08 | 1.67 | 1.27 | 0.701 | 0.485 | 1.8 | 0.562 | 0.668 | 0.546 | 0.637 |

The remaining lines, values behind:

| Sequence | SH2 binding enrichment (c-Src SH2) | SH2 binding enrichment (SHP2-C SH2) | SH2 binding enrichment (Grb2 SH2) | phosphorylation enrichment (Fer (mouse)) | phosphorylation enrichment (MERTK) | phosphorylation enrichment (c-Abl (mouse)) | phosphorylation enrichment (FGFR3) | phosphorylation enrichment (AncSZ) | phosphorylation enrichment (Jak2) | phosphorylation enrichment (FGFR1) | phosphorylation enrichment (Fyn) | phosphorylation enrichment (Fes) | phosphorylation enrichment (EPHB2) | phosphorylation enrichment (c-Src) | phosphorylation enrichment (Hck) | phosphorylation enrichment (EPHB1) |
| --- | --- | --- | --- | --- | --- | --- | --- | --- | --- | --- | --- | --- | --- | --- | --- | --- |
| VNKGGYFSVNL [C3orf33_Y164_S160N] | 1.4 | 0.725 | 0.648 | 0.395 | 0.412 | 0.688 | 0.603 | 0.832 | 1.23 | 0.599 | 0.456 | 1.05 | 0.411 | 0.398 | 0.411 | 0.553 |
| IRTIDYRYTVS [IDS_Y497_W502S] | 0.69 | 0.823 | 0.73 | 0.45 | 0.411 | 0.46 | 0.601 | 0.789 | 0.713 | 0.593 | 0.558 | 1.13 | 0.666 | 0.385 | 0.532 | 0.437 |
| RNAAEYLLSSG [ABL1_Y139] | 0.566 | 0.595 | 0.998 | 0.596 | 0.294 | 0.353 | 0.446 | 0.765 | 0.667 | 0.456 | 0.35 | 0.723 | 0.345 | 0.34 | 0.48 | 0.38 |
| FDNSVYQKTTE [LDLR_Y828_P826S] | 0.768 | 0.559 | 0.808 | 0.374 | 0.432 | 0.701 | 0.641 | 0.924 | 0.673 | 0.51 | 0.515 | 0.913 | 0.488 | 0.657 | 0.668 | 0.487 |
| GIVEEYQLPYY [BMPR1A_Y453] | 4.36 | 0.997 | 0.862 | 0.66 | 0.567 | 1.16 | 0.946 | 3 | 1.29 | 1.06 | 0.647 | 1.06 | 0.642 | 3.47 | 0.63 | 0.611 |
| PLGKDYRKAEG [MAP1A_Y1909] | 0.408 | 0.647 | 0.884 | 0.655 | 0.589 | 0.505 | 0.787 | 0.68 | 0.378 | 0.691 | 0.72 | 0.941 | 0.532 | 0.456 | 0.945 | 0.512 |
| AGVDRYSLGTS [C5orf42_Y1451_P1446A] | 0.45 | 0.615 | 0.79 | 0.398 | 0.394 | 0.388 | 0.51 | 0.59 | 0.498 | 0.398 | 0.361 | 0.599 | 0.366 | 0.391 | 0.455 | 0.463 |
| YVFSFYHAFSG [ACTN4_Y265_S262F] | 0.889 | 1.23 | 1.19 | 0.69 | 3.14 | 1.1 | 1.13 | 1.37 | 1.44 | 0.921 | 0.692 | 1.43 | 0.825 | 0.964 | 0.835 | 1.15 |
| TLQSMYGCDVG [HLA-B_Y123] | 0.559 | 0.812 | 1.08 | 0.612 | 0.406 | 0.639 | 0.667 | 0.935 | 0.843 | 0.497 | 0.552 | 0.979 | 0.71 | 0.661 | 0.525 | 0.598 |
| AFDNLYFWDQD [ERBB2_Y1221_YF] | 0.495 | 0.59 | 0.865 | 1.68 | 5.13 | 0.981 | 6.95 | 2.1 | 1.56 | 6.87 | 5.76 | 1.93 | 1.25 | 5.12 | 4.26 | 1.42 |
| VDEVLYEDSSA [MTHFS_Y197_T202A] | 0.551 | 0.979 | 0.834 | 2.08 | 0.508 | 0.923 | 0.609 | 1.47 | 1.29 | 0.679 | 0.502 | 1.16 | 0.577 | 0.647 | 0.716 | 0.637 |
| NVVHEYSSELE [FGB_Y172_N170H] | 1.48 | 0.637 | 0.908 | 0.519 | 0.473 | 0.987 | 0.705 | 1.02 | 1.02 | 0.472 | 0.436 | 1.1 | 0.656 | 0.649 | 0.481 | 0.544 |
| VLNKGYRMVVN [HINT1_Y94_G89V] | 0.424 | 0.538 | 0.707 | 0.311 | 0.339 | 0.361 | 0.396 | 0.557 | 0.433 | 0.392 | 0.383 | 0.539 | 0.343 | 0.326 | 0.368 | 0.362 |
| KNDSNYVVKGN [KIT_Y823] | 0.546 | 0.659 | 0.814 | 0.323 | 0.382 | 0.568 | 0.447 | 0.539 | 0.482 | 0.55 | 0.37 | 0.635 | 0.318 | 0.346 | 0.406 | 0.303 |
| MGGSVYFSYPD [HIKESHI_Y55] | 0.843 | 1.94 | 0.978 | 0.401 | 1.36 | 0.752 | 1.41 | 1.02 | 1.09 | 1.49 | 3.16 | 1.07 | 0.815 | 3.42 | 1.65 | 0.728 |
| LSDGPYSNSFE [EPOR_Y485_P488S_YF] | 1.22 | 0.525 | 1 | 1.36 | 0.858 | 1.2 | 0.976 | 1.49 | 1.18 | 1.07 | 1.23 | 1.65 | 1.11 | 0.83 | 0.915 | 0.982 |
| DMDATYRPMYS [JUP_Y701] | 0.513 | 0.521 | 0.747 | 0.463 | 0.407 | 0.656 | 0.63 | 0.678 | 0.65 | 0.544 | 0.563 | 0.768 | 0.525 | 0.568 | 0.677 | 0.441 |
| EVESPYEVHDF [GIGYF2_Y1168_YF] | 0.486 | 0.832 | 0.785 | 12.3 | 0.974 | 0.825 | 0.81 | 1.93 | 1.23 | 0.593 | 5.32 | 1.3 | 0.922 | 5.45 | 1.44 | 0.837 |
| GGPTFYIDTNA [ACTL6A_Y69_YF] | 0.577 | 0.608 | 0.874 | 0.529 | 0.41 | 0.775 | 0.868 | 1.24 | 1.13 | 0.542 | 0.458 | 1.39 | 0.626 | 0.439 | 0.53 | 0.707 |
| EKKQTYGSCRK [LACTB_Y473_R469K] | 0.867 | 0.838 | 1.23 | 0.351 | 0.366 | 0.581 | 0.488 | 0.533 | 0.484 | 0.395 | 0.37 | 0.685 | 0.356 | 0.43 | 0.391 | 0.415 |

From the supplement of paper PMC10065799, “High-throughput profiling of sequence recognition by tyrosine kinases and SH2 domains using bacterial peptide display” (eLife, 2023)
